# Results published in patent US20190202914A1 (HARBOUR BIOMED SHANGHAI, published 2019).
# Residue numbers refer to the chain shown, from its start. In names and notes the source's numbering stands.
# T1: human CTLA-4 expressed on cells (293-hCTLA-4 cells; CTLA-4-expressing CHO-K1 cells) (human, UniProt P16410 36-223)
# T1 construct: also called CD152; cell-expressed CTLA-4
# T1 sequence: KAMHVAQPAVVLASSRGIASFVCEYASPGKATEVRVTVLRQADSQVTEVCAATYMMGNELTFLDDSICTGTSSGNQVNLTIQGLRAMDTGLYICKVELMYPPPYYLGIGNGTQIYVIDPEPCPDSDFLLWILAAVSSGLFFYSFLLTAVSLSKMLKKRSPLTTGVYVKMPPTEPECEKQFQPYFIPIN
# T2: cyno CTLA-4 expressed on 293 cells (293-cynoCTLA-4 cells) (cyno, UniProt G7PL88 36-223)
# T2 construct: also called cynomolgus CTLA-4
# T2 sequence: T1 sequence with S14N, L106M
# T3: Recombinant human CTLA-4-his protein (CT4-H5229, Acro Bio) (human, UniProt P16410 36-161)
# T3 construct: extracellular domain; Bought protein; also called Human CTLA-4^ECD-his; not shown: his tag
# T3 sequence (looked up): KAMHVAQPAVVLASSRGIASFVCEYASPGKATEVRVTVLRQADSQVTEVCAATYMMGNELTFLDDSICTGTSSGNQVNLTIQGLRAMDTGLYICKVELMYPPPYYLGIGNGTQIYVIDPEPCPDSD
# B1: CL3 (antibody, human IgG1, V domains shown)
# VH: EVQLVEIGGGEIQPGGSLRLSCAASGFNVSKNYMSWVRQAPGKGLEWVSVIYSGGGTEYAASVKGRFNISRDSSKNMLYLQMNNLRAEDTAVYYCARAVPRPHGTDIWGQGTMVTVSS
# notes: Human heavy-chain-only antibody (HCAb): two heavy chains, no light chain
# B2: CL30 (antibody, human IgG1, V domains shown)
# VH: EVQLEETGGDLIQPGGSLRLSCTASGFNVSRIYMSWVRQAPGKGLEWVSVIYSGGSIYYADSVRGRFTISRDSSTNTVYLQMNSLRAEDSAVYYCARAVPHAPSNFDKWGQGTRVTVSS
# notes: Human heavy-chain-only antibody (HCAb): two heavy chains, no light chain; also called clone 30
# B3: CL5-dPTM′ (antibody, human IgG1, V domains shown)
# VH: EVQLVESGGGLIQPGGSLRLSCAVSGFTVSKNYMSWVRQAPGKGLEWVSVVYSGGSKTYADSVKGRFTISRDNSKNTLYLQMNSLRAEDTAVYYCARAVPHSPSSFDIWGQGTMVTVSS
# notes: HCAb variant with PTM removal
# B4: CL5′-dPTM′ (antibody, human IgG1, V domains shown)
# VH: B3 VH
# notes: HCAb variant with PTM removal
# B5: CL11-dPTM′ (antibody, human IgG1, V domains shown)
# VH: B3 VH with V24A, K31R, N32I, V51I, K57I, T58Y, N73S, L78V, H101S, S102A
# notes: HCAb variant with PTM removal
# B6: CL25-dPTM (antibody, human IgG1, V domains shown)
# VH: B3 VH with S7T, V24A, K31S, V51I, K57T, T58Y, N83S, S105A, I108R, M114L
# notes: HCAb variant with PTM removal
# B7: CL30-dPTM′ (antibody, human IgG1, V domains shown)
# VH: B2 VH with E5V, T7S, D10G, T23A, N28T, R64K, T75K, S90T, R114L
# notes: HCAb variant with PTM removal
# B8: CL25-dPTM′ (antibody, human IgG1, V domains shown)
# VH: B3 VH with V24A, K31S, V51I, K57T, T58Y, S105A, I108R, M114L
# notes: HCAb variant with PTM removal
# B9: CL5′-eA-dPTM′ (antibody, human IgG1, V domains shown)
# VH: B3 VH
# notes: HCAb variant with PTM removal and the eA (S239D, I332E) Fc
# B10: CL22 (antibody, human IgG1, V domains shown)
# VH: EVQLVETGGGLIQPGGSLRLSCAVSGFTVRNNYMSWARQVPGKGLEWVSVIYSGGSITYADSVKGRFIISRDNSNNTLYLQMNGLRAEDTAVYYCARAVPHAPSAFDIWGQGTMVTVSS
# notes: Human heavy-chain-only antibody (HCAb): two heavy chains, no light chain; also called clone 22
# B11: CL22-dPTM′ (antibody, human IgG1, V domains shown)
# VH: B3 VH with V24A, S30R, K31N, V51I, K57I, S102A, S105A
# notes: HCAb variant with PTM removal
# B12: CL25 (antibody, human IgG1, V domains shown)
# VH: EVQLVETGGGLIQPGGSLRLSCAASGFTVSSNYMSWVRQAPGKGLEWVSVIYSGGSTYYADSVKGRFTISRDNSKNTLYLQMSNLTAEDTAVYYCARAVPHSPSAFDRWGQGTLVTVSS
# notes: Human heavy-chain-only antibody (HCAb): two heavy chains, no light chain; also called clone25
# B13: CL22-dPTM (antibody, human IgG1, V domains shown)
# VH: B10 VH with N75K
# notes: HCAb variant with PTM removal
# B14: CL5-dPTM (antibody, human IgG1, V domains shown)
# VH: B3 VH with V5A, S7T, A40V, S49A, T68I, I69L, K75D, S84N
# notes: HCAb variant with PTM removal
# B15: CL5 (antibody, human IgG1, V domains shown)
# VH: B3 VH with V5A, S7T, T28N, A40V, S49A, T68I, I69L, K75D, S84N
# notes: Human heavy-chain-only antibody (HCAb): two heavy chains, no light chain; also called HCAb clone 5
# What was measured:
# [1] = molecular target: T1, human CTLA-4 expressed on cells …; assay: flow cytometry (MFI) on 293 cells expressing human CTLA-4, Alexa 488 anti-human (H+L) detection
# Experimental: (§1) The culture medium was aspirated, and the cells were washed twice with HBSS (Hanks Balanced Salt Solution, Invitrogen). The cells were treated with enzyme-free cell dissociation solution (Versene solution, Invitrogen) and collected. The cells were then washed twice with HBSS, cell counts were determined, and cells were resuspended with HBSS at 2×10⁶ cells/mL. BSA was added to the cell suspension to a final concentration of 1%, and the cells were blocked for 30 minutes on ice and then washed twice with HBSS. The cells were collected after centrifugation and resuspended in FACS buffer (HBSS+1% BSA, v/v) at 2×10⁶ cells/mL. 100 μL of the cell suspension were then added to each well of a 96-well plate. 100 μL of purified anti-CTLA-4 antibodies from Example 2 or control antibodies were added to each well of the 96-well plate and incubated for 1 hour on ice, wherein the heavy chain and light chain of the Ipilimumab analogue had amino acid sequences of SEQ ID NO.: 199 and SEQ ID NO.: 200, respectively. Cells were washed twice with FACS buffer, and 100 μL of Alexa 488-labeled anti-human (H+L) antibody (Invitrogen) were added to the 96-well plate and incubated for 1 hour on ice. The samples were washed three times with FACS buffer, and 100 μL of fixation buffer (containing 4% paraformaldehyde, v/v) were added to each well and incubated for 10 minutes. The cells were then washed twice with FACS buffer and resuspended in 100 μL of FACS buffer.
# [2] = molecular target: T2, cyno CTLA-4 expressed on 293 cells …; assay: flow cytometry (MFI) on 293 cells expressing cynomolgus CTLA-4, Alexa 488 anti-human (H+L) detection
# Experimental: as §1
# [3] = molecular target: T1, human CTLA-4 expressed on cells …; assay: cell-based blocking assay, flow cytometry: % blocking of biotinylated B7.1 ECD-Fc binding to 293-hCTLA-4 cells
# Experimental: Cell-Based Receptor-Ligand Binding assay was performed to determine the ability of the anti-CTLA-4 antibodies to block the binding of CTLA-4 to its ligands B7.1. Recombinant B7.1^ECD-Fc protein (B71-H5259, Acro Bio) was biotinylated using EZ-LINK NHS-PEG12-Biotin (Thermo Scientific#21312) according to the manufacturer's instruction. Biotinylated B7.1^ECD-Fc protein was concentrated and free label removed by using Amicon centrifugal filter (10 kDa cut off). The extracellular domain of B7.1 corresponded to amino acids Val35-Asn242 of Uniprot database protein P33681.
# The culture medium was aspirated, and the cells were washed twice with PBS. The cells were treated with enzyme-free cell dissociation solution (Versene solution, Invitrogen) and collected. Dissociation solution was neutralized by the addition of 8 mL of culture medium, and cell counts were determined. Cells were centrifuged at 300 g for 5 minutes and resuspended in blocking buffer (containing 2% BSA, pH 7.4 PBS buffer, w/v) at 1×10⁶ cells/mL. The cells were blocked for 15 minutes at 37° C. Meanwhile, the wells of 96-well round-bottom plates were blocked with 200 μL of blocking buffer for 1 hour at 37° C. The blocking buffer was discarded, and 200 μL of cells were dispensed to each well of the 96-well plates (2×10⁵ cells/well). The plates were centrifuged at 500 g for 5 minutes, and the supernatants were discarded. The cells were resuspended in 100 μL of anti-CTLA-4 antibodies prepared in blocking buffer with varying concentrations. 100 μL of biotinylated B7.1 ECD-Fc (60 μg/mL in blocking buffer) were added to each well of 96-well plate and mixed by shaking gently. The plates were incubated at 4° C. for 90 minutes and washed twice with 200 μL blocking buffer. The blocking buffer was discarded, and the cells were resuspended in 100 μL of streptavidin-Alexa 488 solution (Invitrogen, 1:500 in blocking buffer) and incubated at 4° C. for 1 hour. The plates were washed three times with blocking buffer and added with 200 μL of blocking buffer.
# The mean fluorescence intensity (MFI) was determined using FACS Calibur (BD).
# [4] = molecular target: T1, human CTLA-4 expressed on cells …; assay: flow cytometry (MFI) on 293F-hCTLA-4 cells, Alexa 488 anti-human (H+L) detection
# Experimental: Cell-based binding assay was performed to determine the binding ability of the anti-CTLA-4 antibody variants with PTM removal to human CTLA-4. The assay procedure was similar to that described in Example 3. […] Cells were centrifuged and blocked in blocking buffer (containing 2% BSA, pH 7.4 PBS buffer, w/v) at 1×10⁶ cells/mL for 15 minutes at 37° C. 200 μL of cells were dispensed to each well of the 96-well plates (2×10⁵ cells/well). The plates were centrifuged and the supernatants were discarded. The cells were resuspended in 100 μL of anti-CTLA-4 antibodies prepared in blocking buffer. The plates were incubated at 4° C. for 90 minutes and washed twice. After the blocking buffer was discarded, the cells were resuspended in 100 μL of Alexa 488-labeled anti-human (H+L) antibody (1:500, Invitrogen) and incubated at 4° C. for 1 hour. The cells were washed and resuspended in 200 μL of blocking buffer. The mean fluorescence intensity (MFI) was determined using FACS Calibur (BD).
# [5] = molecular target: T1, human CTLA-4 expressed on cells …; assay: cell-based blocking assay, flow cytometry: % blocking of biotin labeled B7.1 binding to 293-hCTLA-4 cells
# [6] = molecular target: T3, Recombinant human CTLA-4-his protein …; assay: SPR, Biacore T200, antibody immobilised, CTLA-4-his injected, 1:1 model
# Experimental: Dissociation constants were determined by Biacore T200 (GE Healthcare), following the specifications of the instrument provided by the manufacturer. Briefly, 1 μg/mL diluted anti-CTLA-4 antibodies in 10 mM NaOAc (pH 5.0, sigma) were immobilized on flow cell of a Series S CMS sensor chip. Remaining active ester groups were blocked with 1 M ethanolamine (pH 8.5). With HBS-EP+ as the running buffer, recombinant human CTLA-4-his (CT4-H5229, AcroBio) and cynoCTLA-4-his proteins (CT4-05227, AcroBio) with five serial diluted concentrations were injected over flow cells at 30 μL/min with the association time of 180 s. Buffer flow was maintained for dissociation for 600s.
# [7] = molecular target: T1, human CTLA-4 expressed on cells …; assay: flow cytometry on 293F-hCTLA-4 cells
Binder,EC50 (read off the curve) [1] [nM],EC50 (read off the curve) [2] [nM],EC50 (read off the curve) [4] [nM],IC50 (read off the curve) [5] [nM],other results
B1,~2,~1,–,–,–
B2,~2,~1,–,–,IC50 (read off the curve) [3]: ~10 nM
B3,–,–,~1,~7,–
B4,–,–,–,–,Kd [6]: 0.0428 nM; koff [6]: 0.000229 s⁻¹; kon [6]: 5.35e+06 M⁻¹ s⁻¹
B5,–,–,~1,~7,–
B6,–,–,~1,~7,–
B7,–,–,–,–,binding result [7]: binds
B8,–,–,~1,~7,–
B9,–,–,–,–,Kd [6]: 0.014 nM; koff [6]: 7.58e-05 s⁻¹; kon [6]: 5.4e+06 M⁻¹ s⁻¹
B10,~2,~1,–,–,IC50 (read off the curve) [3]: ~10 nM
B11,–,–,–,–,binding result [7]: binds
B12,~2,~1,–,–,–
B13,–,–,~1,~7,–
B14,–,–,~1,~7,–
B15,~2,~1,–,–,IC50 (read off the curve) [3]: ~10 nM
